In paper PMC5042384, “Sequence-Dependent T:G Base Pair Opening in DNA Double Helix Bound by Cren7, a Chromatin Protein Conserved among Crenarchaea”:

T1: Cren7 (UniProt Q97ZE3 1-60)
T1 sequence: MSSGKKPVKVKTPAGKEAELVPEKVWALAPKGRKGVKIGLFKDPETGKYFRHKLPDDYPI

B1: d(GTAATTGC)2 (dsDNA)
DNA 1: GTAATTGC
DNA 2: GTAATTGC
B2: d(GTGATCGC)2 (dsDNA)
DNA 1: GTGATCGC
DNA 2: GTGATCGC

Legend:
[1] = molecular target: T1, Cren7; assay: X-ray crystallography; 2.0 A; T2:G15 open; SPR (BIAcore 3000): 50 mM Tris-Cl pH 7.5, 100 mM NaCl, 1 mM EDTA, 0.005% Tween 20, 25 C, 1:1 Langmuir global fit; crystals: protein:DNA 1:1.5, 30% PEG1500, 20 C; settings: protein: recombinant; blunt; self-annealed octamer, 2 strand copies, T:G mispairs T2:G15 and G7:T10
[2] = molecular target: T1, Cren7; assay: X-ray crystallography; 2.1 A; both T:G wobble; SPR (BIAcore 3000): 50 mM Tris-Cl pH 7.5, 100 mM NaCl, 1 mM EDTA, 0.005% Tween 20, 25 C, 1:1 Langmuir global fit; crystals: protein:DNA 1:1.5, 30% PEG1500, 20 C; settings: protein: recombinant; blunt; self-annealed octamer, 2 strand copies, T:G mispairs T2:G15 and G7:T10

Binder | binding result [1] | binding result [2]
B1 | binds | –
B2 | – | binds
